The text below walks through data of paper PMC3665795, “Crystal Structure of a Novel N-Substituted L-Amino Acid Dioxygenase from Burkholderia ambifaria AMMD” (PLoS ONE, 2013).

The target in assay [1] is SadA, N-substituted L-amino acid dioxygenase from Burkholderia ambifaria AMMD (Burkholderia ambifaria AMMD). Nature of the assay: SEC; Superdex 200 size-exclusion chromatography; calibrated with ovalbumin (43 kDa) and conalbumin (75 kDa).
The target in assay [2] is T1, SadA (Burkholderia ambifaria, UniProt Q0B2N4).
T1 construct: gene Bamb_6045; dimer
T1 sequence (Q0B2N4 1-273): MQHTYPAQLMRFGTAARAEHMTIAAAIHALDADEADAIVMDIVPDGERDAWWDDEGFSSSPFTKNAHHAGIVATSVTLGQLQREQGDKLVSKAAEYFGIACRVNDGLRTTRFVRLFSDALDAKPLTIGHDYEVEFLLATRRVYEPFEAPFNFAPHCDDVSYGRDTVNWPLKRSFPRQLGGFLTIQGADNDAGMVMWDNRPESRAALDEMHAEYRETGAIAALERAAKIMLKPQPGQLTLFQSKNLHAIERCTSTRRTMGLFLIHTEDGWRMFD
Nature of the assay: X-ray crystal structure, […] Å. It is filed as binding. The conditions noted are these: Zn(II) in place of Fe(II); cocrystallized with 10 mM α-KG; 0.1 M CHES pH 9.5, 30% PEG 3,000, 293 K; active site, chain A, bidentate to the metal.

As usually defined, the stoichiometry N is the number of molecules, sites or subunits per partner or assembly.

For the molecule “SadA, N-substituted L-amino acid dioxygenase from Burkholderia ambifaria AMMD (enzyme)”, the stoichiometry N in assay [1] was found to be 2.
Regarding `O=C(O)CCC(=O)C(=O)O` [α-KG], the “X-ray crystal structure, 1.98 Å” value in assay [2] was “only one α-KG molecule is clearly observed in chain A of the SadA.Zn(II).α-KG structure”.
